Source: the DeepSol protein solubility set

Test: soluble on expression in E. coli; label from the status in PepcDB or PDB records

Sequence | soluble on expression in E. coli
MGSDKIHHHHHHMGSLNMPPLDFDAQKTPHIADLRSPQCRNCDIVREIAFCADLSPDEVKRLATVRCHAALPASFTVFREGDEVDHVYSISAGAVKLYKLMPDGRRQIIGFLFSGDLFGLGIDGGYCYTAETITPTHLCRFTHRKLDSLIAEIPRLERRMFTMAVKDLVSAQDQMLLLGRKTAREKVATFLLRLSRRSIQMGLPPSPVALPMSRADIADYLGLTIETVSRTFTQLKRDGIIGLPASGHCIVNDWEALRELAEGG | not soluble
GPFCGRARVHTDFTPSPYDTDSLKIKKGDIIDIICKTPMGMWTGMLNNKVGNFKFIYVDVISE | soluble
MGSDKIHHHHHHACSQKQPIQATVTPSDPVVGEEIFFSDSTSGARIWYWEFGNNETSTQRSGYHRFKQKGVYKIRLTVNGNLERYFDVRVKEKTNAEDLHLVHIIAPKEAIQGENIIFRGEGHDEQWRWEFGETGMIDSREKTALYAYTEPGEYEVLLNTENTRYPIRHRINILPYYSENDSTDVMVLIGLDIKEKLQNIADGKPFNVNYNYVVDKYFNNNPNTLVIVNNNKYNDFYSYCQGLHHIGRKETIIQNVIVETEDEESGYITQITVMQIEKKK | not soluble
MKTALLLKTKSQPFDPYVEAFEKYGRDTAFIPVLRHKRVHEEQLRDKLKNVRKTYCGLIVTSQRVSETLDEALKQEDETERQKILMETPIFTVGPATDDSIRRLGFQQTHGKDCGRGEVLADLIEEWYTTTKQHKPLLFLVGEKHRDIIQRKLGDDRVDSLIVYATQELENTETQIKDTIRKHPTIDWIVAFSPTSICSLLNTFELKIATIGPTTGDYLKKLGTQPNVVSPAPNPESLASSIVAFDEENSS | soluble
MPLSTSDNIAAVIVTHKRVELLRASLEVVAAQTHPVKWIIVVDNGCEDAVRDLLHSVAGDRGIYLPSHTNLGGAGGFAYGFLTALALGADAIWCADDDGRPEGPQVLATLIDAAVTHQLDEVSPVVCNMDDPNRLAFPLRRGLEWRRYRSELIDPNNPSDTLLPGIASLFNGALISAAAMERIGVPDLRLFIRGDEVEYHRRLVRSGLNFGTCLTTAYLHPDGSDEFKPILGGRMHTQYPASDAKRYFTYRNRGYLMNQPGMRRLLPQEYARFAWFFLIQRRDPRGFLEWFKLHQLGRSEKFERPLEHHHHHH | not soluble
MTTPSMEMYIEQIYMLIEEKGYARVSDIAEALAVHPSSVTKMVQKLDKDEYLIYEKYRGLVLTSKGKKIGKRLVYRHELLEQFLRIIGVDEEKIYNDVEGIEHHLSWNSIDRIGDLVQYFEEDDARKKDLKSIQKKTEHHNQ | soluble
MSDDKFDAIVVGAGVAGSVAALVMARAGLDVLVIERGDSAGCKNMTGGRLYAHTLEAIIPGFAVSAPVERKVTREKISFLTEESAVTLDFHRGQPDVPQHASYTVLRNRLDPWLMEQAEQAGAQFIPGVRVDALVREGNKVTGVQAGDDILEANVVILADGVNSMLGRSLGMVPASDPHHYAVGVKEVIGLTPEQINDRFNITGEEGAAWLFAGSPSDGLMAGGFLYTNKDSISLGLVCGLGDIAHAQKSVPQMLEDFKQHPAIRPLISGGKLLEYSAHMVPEGGLAMVPQLVNEGVMIVGDAAGFCLNLGFTVRGMDLAIASAQAAATTVIAAKERADFSANSLAQYKRELEQSCVMRDMQHFRKIPALMENPRLFSQYPRMVADIMNEMFTIDGKPNQPVRKMIMGHAKKIGLINLLKDGIKGATAL | not soluble
MGSDKIHHHHHHMEASFDIALASAYVNAHMYSQGLHVSRVAAKDSDFQGVSEKRYEIKDPKEMSRLIKKIGALFGSPLVRIVKLNPEWSYEHAPGDGRGYKYGEPVDIPEHWQYGIIMGIPLSWETREGAPSFFHTFEGYGNASMHCARMAEFVKKLGYPARENSPHARYEYIMPPHMVAAGIGEQGRLGVVVTPEFGPNFRPSMVVTNMPLEPDKPIDVGIRKFCMNCKICADQCPSGSISFDGPKEINGRGYDGWQINASTCHNFWMSVPNGGCRVCLAVCPFSKESNWLHTTARDIAVRERTGITASTLTWMEKAFYGVNTPEHYHYKEGTRQFDYLVGEKPWFFESKDFLKEN | not soluble
MGSDKIHHHHHHMVDTHAHLHFHQFDDDRNAVISSFEENNIEFVVNVGVNLEDSKKSLDLSKTSDRIFCSVGVHPHDAKEVPEDFIEHLEKFAKDEKVVAIGETGLDFFRNISPAEVQKRVFVEQIELAGKLNLPLVVHIRDAYSEAYEILRTESLPEKRGVIHAFSSDYEWAKKFIDLGFLLGIGGPVTYPKNEALREVVKRVGLEYIVLETDCPFLPPQPFRGKRNEPKYLKYVVETISQVLGVPEAKVDEATTENARRIFLEVKE | soluble
MTQLATICYIDNGDSLLLLHRNKKENDVHKGKWISVGGKLEAGETPDECARREILEETHLTVTEMAFKGIITFPEFTPGHDWYTYVFKVTGFEGDLISDEESREGTLEWVPYDQVLEKPTWEGDYDIFKWILEDRSFFSAKFTYDQNNQLMDKSVTFY | not soluble
MLRATNNRRTSNNVEKDSLQMAKHGNGPLKPVNAQGLQTKREAREILALKPSNPAPVETAQKSQRINLQDAETKCLAMADDIYKYLVHHEKKYLLEECFMEGGEPTPKMRRILVDWLVQVHVRFHLTPETLHLTVFILDRMLQKKVTSKADLQLLGISAMFVASKFEEVYLPDIHDYEFITENTYSKKQILAMEQTILNSLNFDLSCPSSLVFLRCLSRILSENDASPIDNQAFCYTYNISKCLGELALLDSVMASTPRSHIASASMIIALEVHPVDGIEAENAVSVICKQLGASKKVIEDAVALLAEVSYKNFKQGKLVAIKNKYQSSKLAQVSNLMTDDVLEKINRMGQNAKVDASEME | soluble
MRLVIHGKNIDITDGIRSYLNQKIERATSHFQNVINEVDVHLSVARNRSTAPKQTAEVTVFVNGSVIRAEESSENLYASIDLVADKIARKLRKLKEKRQDKSRAKDTNSVVEPEVVTDLVGDRTPQLPEQVVRMKYFAMPPMTIQEALEHLEMVDHDFYVFRNRDTGEINVVYERNHGGYGVIQPRPTSNNHHHNTADAAAKATAKAGPLEHHHHHH | soluble
MIQDTRPLIRVVAGILLDSDGNYLLSSRPEGKPYAGYWEFAGGKVEAGETDFQALQREFEEELGIRILAATPWLTKIHSYEHARVCLKFLWVNPDQWTGKPQSREGQEWSWQKAGDFTVAPMLPANGALLRSLSVPRRLYGSLKTGLHGENSMGAYRVLPLGSAEGSGANVLMEAAQWQDRPEHADSVWMVVQTREQWRRAQEKGADAVVWRVCDDVQAQEAAEALRQGVSVPLVLAANGQTVARYGKLWLGLGAHVVVRDETIGKNHE | not soluble
MSLNGPLKIGYYKIGAAYRDGKGYDVDMVRELARRLGCPIANETELPRLRALKMLETGQIDVSASTLATPDRLQYAWIYQYNHAKNMVLLNPAIQARTLATLLEDPALRWGAIRGYHHGPSQDKLLEELNARHKVVIANDEDDLYKMLGNGVVTAVFAQPFSYGRWLRELPNPNQIVVLDLYPETDMVASGLALSKARFSREAAEKWHQELLKMYQDGSLYDIMRRYLNESAARQMMQKPIEEGHHHHHH | soluble
MAHHHHHHMSGSVNRSNSFQKADSMDAKETSTVDRKWVALTAYQPVDVVTKTVEVPVIKTVEKFVPKTIIQEKIIHVPKNVTHIVEKIVEVPEVKYIEKIVEVPHIHYKNKYVPKIEVVEKVVERQKIIEKWHDKIVEVPQIKEVVRFKEIEDAEEVIKYIPRNSKNINWEEEYQKYTQRKGQERYSLDNNAYQQKMSSYNDYNEKAYSQNAYSRSLDFMNKQSSSLNNQSNIRSEDFSQINFFNQYIGSAGASYDKQRNSVPTSSFDARGSLQLKRMPSEEAKPVGCCTSACT | not soluble
MSNSNKLIAEKNGSRYGRMIHPWLRKKQDMLADTPSRREGMTYEEELSKRQQGGVFIFDIAMQLTHGKGEHGLSGVAATLFNRFFNVHSLKRCDFRDVAAACVFLAGKNEDAPKKLKYVVTQLWQFKYPHNKQFQSEQHFLDQCNVVTLIEDVLLKTISFDINVDLPHQYVLKLMRDVEKGRNVYKDMVKTAYYMATDVLIITDWSVRYSCASIATACVNIAAFFHNINMDDIVPFELSDRWYRLEDQSMTREEVEAMTKEFLDIFSRNPQFHIGSLKKIDPLGKVKIVGMPPQVSSTVTPSGSSSNLKKIDLESYKGRPKPLSNSSDSPSTRPSFLPDVKNQKVVEQELMEQRMKEAAQQKIHRNGHRPSSSSHPLHHHSTSSSASNNSNHQNRSSSGLSAHQHQKPYNEDSRSAKRSMMYEETNSSKKPRIDYKMSFVASSSTTIATMHNDHFSQTTHQQNISTYARGVNEMMLNQVAPPPLMSVSAQPSTYQKMCMEYQRNPADSRHTMSSTQQISPPDEPSPPVSQILLPPPPPPPILPPRLDEMEEGELV | not soluble
MSCVHYKFSSKLNYDTVTFDGLHISLCDLKKQIMGREKLKAADSDLQITNAQTKEEYTDDNALIPKNSSVIVRRIPIGGVKSTSKTYVISRTEPVMGTTKAVCKNTITLFLHNCFYLYNVSVT | not soluble
MLKLPPLSLYIHIPWCVQKCPYCDFNSHALKGDVPHQEYVDHLLADLDADLPLAGGRALHSIFIGGGTPSLLSAEAMQALLDGVRARIPLTPDAEITMEANPGTVEADRFSGYQRAGINRISIGVQSFDPQKLTRLGRIHGPEEAKRAAQLATGLKLRSFNLDLMHGLPDQSLDEALDDLRQAIALNPPHLSWYQLTIEPNTLFSSRPPTLPDDDALWDIYEQGHALLSAAGYEQYETSAYAKPGYQCQHNLNYWRFGDYLGIGCGAHGKLTFSDGHILRTVKVRHPRGYMQGTYMDKQHDVANDDRPFEFFMNRFRLLEAAPRADFTAYTGLEEHSIRPQLDQALAQGYLTETATHWQITEHGKLFLNSLLELFLAEELEHHHHHH | not soluble
MSLNPRPGKVVIYSEPDVSEKCIEVFSDIQDCSSWSLSPVILIKVVRGCWILYEQPNFEGHSIPLEEGELELSGLWGIEDILERHEEAESDKPVVIGSIRHVVQDYRVSHIDLFTEPEGLGILSSYFDDTEEMQGFGVMQKTCSMKVHWGTWLIYEEPGFQGVPFILEPGEYPDLSFWDTEAAYIGSMRPLKMGGRKVEFPTDPKVVVYEKPFFEGKCVELETGMCSFVMEGGETEEATGDDHLPFTSVGSMKVLRGIWVAYEKPGFTGHQYLLEEGEYRDWKAWGGYNGELQSLRPILGDFSNAHMIMYSEKNFGSKGSSIDVLGIVANLKETGYGVKTQSINVLSGVWVAYENPDFTGEQYILDKGFYTSFEDWGGKNCKISSVQPICLDSFTGPRRRNQIHLFSEPQFQGHSQSFEETTSQIDDSFSTKSCRVSGGSWVVYDGENFTGNQYVLEEGHYPCLSAMGCPPGATFKSLRFIDVEFSEPTIILFEREDFKGKKIELNAETVNLRSLGFNTQIRSVQVIGGIWVTYEYGSYRGRQFLLSPAEVPNWYEFSGCRQIGSLRPFVQKRIYFRLRNKATGLFMSTNGNLEDLKLLRIQVMEDVGADDQIWIYQEGCIKCRIAEDCCLTIVGSLVTSGSKLGLALDQNADSQFWSLKSDGRIYSKLKPNLVLDIKGGTQYDQNHIILNTVSKEKFTQVWEAMVLYTEGHHHHHH | not soluble
MGSDKIHHHHHHMEERIGLIDIGSNTIRLVIFGYNKKTGLNEILNIKTPARLSQYLTKSNEMNDEGIHVLKETLSSFRKVADKFNVDALYPIATAAIRQSKNREAIIKEIKQDIHIEIQIVPEEDEAFYGYYAITHTTDIENGISVDIGGGSTEVTLFKDKQLKEAHSFPFGVVSLKRQFFGDKAHNDKTAIKNMEQFLREQFSQLDWLSNQHIALVGVGGSARNVARIHQSAHAYPIGGVHNYKMTSKDINNVYDLIRKSSRDELTNLDGLSRDRVDIILPAISVFKTLFKKIDATQFTFSRKGIREGFIMNHISKRYPDEFNKSNVRKDALRHLANEYHIEETSANRRVKLAQSLLNQIISERSLNISAMEKELFIEGSYIYYLGSFIDSDSSSPHTYYLIANSMINGFSHKDRVKLALLASFKNKSLLKFYCKETQWFSNKEIDTIQALGGIIKFANTLNISHTSFVEEVKLKAKKDDKYDLLVYYKGSPIAEEYQANRQKKHIEKILKGKVSIIFTKS | not soluble
